Assay: protease stability score; higher = more stable; yeast display proteolysis, trypsin and chymotrypsin;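 further: log10 excess protease needed over predicted unfolded state with 0 meaning unfolded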

Row | Sequence | protease stability score
1 | DEEKLRRMAERLIRAFDQGDRKRMEDNMDPNVELQVGETVFHGREQVTKALYELRKQVDHFELKSVDIKGEKVVVHVILNINGKHVEMNWVFEAHDGKVKEIKLNPDNQREAET | 2.15
2 | DEEKLVQLMDKAFKFIVNGNTEEAQKMGADNVRYEYVDKKYEGPDVAKKMAQLMQKVGVERTVKRQELKGDQATADFDYRKGDKEYRTTAEVKYEGDKIKEARVEVTDEVKEVVHQG | -0.249
3 | DEEKMDRAKEHYKAIQKGDHERARQLADPNATFVIGDKTIHGREEYADQMKKRRDHIRIEIKSVTFNEEEGRVDVKIEQVRQHNGKPKKFRQDVKFDVQGDKIHQISVTEKK | 0.189
4 | DEEKMEDFVRKLRTGDPKQMHDNVDKDATLTIGDKKWHGRERVATAIRKWLHRADHVRIDRYDIDGDHVRIDARVTFNGKNLKVVLEYRIHNGKVKSVVLKVTSTEVQRQIDKLLS | 1.37
5 | DEEKMEIVLNAFTAMATNNEEDIERLMDPNVKVTIGDTVIHGREQLQKNADRHRRSARINIKSMSAEVQGDTVRVVVNATREHNGRPQTFQLRAVAVAHNGKVKELNVEEKQ | 1.48
6 | DEEKMKEFVKNLNTGNNHRLRKMMDEDVKVVVGDKRYKGDEQAAQFWRRILEQADDIRVNDFKVSGNTAHVDVVINWNGKHIVLDVHVEIHNGKVKQIRIEVRDEEVKRAQEEMES | 1.25
7 | DEEKMLRIAKKMVDALKNGDKDKVKKLGAEGVKVHAMDEEVEGPDQLAKYAKKFKDIGVHVEYKETEYKGDTVTFHTEAEKGDAKVRFEVHYVVKGDKVQKVEVRVDKDQLTEFRKS | 0.524
8 | DEEKNDDTARKFLEVFQEGNEDDIRRLADEDVTVEIGDSTYHGREQALTAVREWSKTVDHYSIESIHADNGRAHLHAKVVVNGKTVNLDLVVDVRNGKVKKVMIDPDRLRELKK | 0.921
9 | DEEKNEEWAEQAQHLLETGDPDKFRTMIDENAKADVGDKRLHGRETIVEEIDRMTERVDHIQITRVSAKGNRVRVKMVLRVNGVNLDVVMVFNYHNGRIKSVQVEYRNREQQKRFES | 0.388
10 | DEEKNETAKQLQRIEETGNKDEVQEMLDKDADIHIGDKVVHGREEYARQVHRRRDEINVQIDEVHYKDEEGSVVVRYTAMQEVNGRPIKNSFQRVQHIDNGRVKHMHFKFSEEQERQMRG | -0.055
11 | DEEKNFREWLHKFNEANESNDEEELKHQMDKNAHVTYGDKTIHGRDTVAEHLANKNRRADNIEFRIRHVSVENGQLQFRIDWNLRHNGENDRFEIKVRADVHNGNVQLQEASVD | 0.134
12 | DEEKNKKIARSLFQVFRTGDENRAQDMADENATARVGDKSVHGKEEFRKFVQEFLRQVDHMDVQEYRVRGNRINIIAVIHHNGQRLKVVITIVLHNGRIVHMVIRYTNPSQWKRVMS | 0.597
13 | DEEKNQDHAKELAKAIVSNNEEDIERLMDPNATMLVGDKQVHGMEEARKLIRDLKKRADHIRVTDVTVSGNKIRVSFVMNVNGQNLQFVVDAQVHNGKITSMRIQARNDDIKRRLEQ | 1.28
14 | DEEKNQELLHHWLKQFSHGNTENLRKNVDKDVRVRVGDKVFNGRETAMRHWSEQVKQVDHVQINHVEVDGDSARADVVYVVNGRERRFEREATIKGDKFKEIEYRTN | -0.248
15 | DEEKNREVKRFLDVMQKGDEDKLRRNVDPNVRFHIGDKTVQGHESFVEQLKTEKQHLRLRIDIKSVRATGNDIEVTAKVEYEHNGQPQHKELQIDVKMHNGRVKTIRYTRRG | 0.224
16 | DEEKNRKQATKVARNIADGNEDEIRKLADEDARANVGDKQVHGRDHVRKLLSDFHHTADRVKLDTINVSGDKVNAKLVLDYNGRRVSVVVQAEVRNGRLKQVNIRATNPEHQKKVES | 0.239
17 | DEEKNRTAARRAAEVLRTNDPDEMSKLADKDATARIGDKHFHGKETLKEAMEELKRQVDHLRVESFRLDGDKIVITAVMSHNGKKQKIVVVAEVENGKVVDFKMDPDQVTRMQK | 0.532
18 | DEEKNTRLIKEFMEALRTGDEHQVRRLMDPNAKVVYGDTRFHGREEAAKFIVEWASRIDHIDVKDMRVNGNRASLTFVANFDGRNHDVKIDFTLQDGKFRQVNFTSN | 1.09
19 | DEEKQAEDFFKEQYEIFRTGDQNREKDMVDPNANVNVGEYRYHGSKDLMKLMRQLRERVDHVQVTLRSINVKNGKAFIHVEEKFKVNGRVDTDRYVIVLSNHNGKWLLVTIQRG | 0.749
20 | DEEKQAHHLLRLLQEVLNNGDEDKARKLADPNVELSVGDKEVHGREKFTKYLYQISKRSDHANMSLTRIDTKPGRIVLVFTLRLNHNGNNTHKRMRAVASVRNGQVVVKHLVDQ | 0.728

Source: the NTF2 design screens of Basanta et al. (2020)
